Measured values: PMC9576728

Legend:
POU2F3 = POU2F3 (UniProt Q9UKI9); test: co-immunoprecipitation (IP:HA) and western blot, quantified; settings: HEK293T cells, IP:HA lanes, parent: 1
FLAG-POU2F3 = FLAG-POU2F3 (UniProt Q9UKI9); test: co-immunoprecipitation (IP:FLAG) and western blot, quantified; settings: HEK293T cells, IP:FLAG lanes, parent: 1

ratio to parent (POU2F3; normalised POU2F3/COLCA2 ratio): 0.37 | ratio to parent (POU2F3; raw POU2F3 band (untagged control lane 0.29; HA bait band WT 1, DAAPP 1.44)): 0.53 | ratio to parent (FLAG-POU2F3; normalised COLCA2/POU2F3 ratio): 0.52 | ratio to parent (FLAG-POU2F3; raw HA band (V5-POU2F3 control lane 0; FLAG bait band WT 1, DAAPP 1.07, V5 control 0.09)): 0.56
Substance: HA-COLCA2 (WT) (from UniProt A8K830) VKELL>DAAPP (V>D; K>A; E>A; L>P; L>P; residue numbers not printed)
